From IntAct's records for PubMed 15086532

B1: Delta-type opioid receptor (Homo sapiens), P41143 (parent)
chain: MEPAPSAGAELQPPLFANASDAYPSACPSAGANASGPPGARSASSLALAIAITALYSAVCAVGLLGNVLVMFGIVRYTKMKTATNIYIFNLALADALATSTLPFQSAKYLMETWPFGELLCKAVLSIDYYNMFTSIFTLTMMSVDRYIAVCHPVKALDFRTPAKAKLINICIWVLASGVGVPIMVMAVTRPRDGAVVCMLQFPSPSWYWDTVTKICVFLFAFVVPILIITVCYGLMLLRLRSVRLLSGSKEKDRSLRRITRMVLVVVGAFVVCWAPIHIFVIVWTLVDIDRRDPLVVAALHLCIALGYANSSLNPVLYAFLDENFKRCFRQLCRKPCGRPDPSSFSRAREATARERVTACTPSDGPGGGAAA

Variants of: B1
Conditions: with gasp1_human GPRASP1, Q5JY77
Sequence of gasp1_human GPRASP1, Q5JY77 (Q5JY77 whole entry): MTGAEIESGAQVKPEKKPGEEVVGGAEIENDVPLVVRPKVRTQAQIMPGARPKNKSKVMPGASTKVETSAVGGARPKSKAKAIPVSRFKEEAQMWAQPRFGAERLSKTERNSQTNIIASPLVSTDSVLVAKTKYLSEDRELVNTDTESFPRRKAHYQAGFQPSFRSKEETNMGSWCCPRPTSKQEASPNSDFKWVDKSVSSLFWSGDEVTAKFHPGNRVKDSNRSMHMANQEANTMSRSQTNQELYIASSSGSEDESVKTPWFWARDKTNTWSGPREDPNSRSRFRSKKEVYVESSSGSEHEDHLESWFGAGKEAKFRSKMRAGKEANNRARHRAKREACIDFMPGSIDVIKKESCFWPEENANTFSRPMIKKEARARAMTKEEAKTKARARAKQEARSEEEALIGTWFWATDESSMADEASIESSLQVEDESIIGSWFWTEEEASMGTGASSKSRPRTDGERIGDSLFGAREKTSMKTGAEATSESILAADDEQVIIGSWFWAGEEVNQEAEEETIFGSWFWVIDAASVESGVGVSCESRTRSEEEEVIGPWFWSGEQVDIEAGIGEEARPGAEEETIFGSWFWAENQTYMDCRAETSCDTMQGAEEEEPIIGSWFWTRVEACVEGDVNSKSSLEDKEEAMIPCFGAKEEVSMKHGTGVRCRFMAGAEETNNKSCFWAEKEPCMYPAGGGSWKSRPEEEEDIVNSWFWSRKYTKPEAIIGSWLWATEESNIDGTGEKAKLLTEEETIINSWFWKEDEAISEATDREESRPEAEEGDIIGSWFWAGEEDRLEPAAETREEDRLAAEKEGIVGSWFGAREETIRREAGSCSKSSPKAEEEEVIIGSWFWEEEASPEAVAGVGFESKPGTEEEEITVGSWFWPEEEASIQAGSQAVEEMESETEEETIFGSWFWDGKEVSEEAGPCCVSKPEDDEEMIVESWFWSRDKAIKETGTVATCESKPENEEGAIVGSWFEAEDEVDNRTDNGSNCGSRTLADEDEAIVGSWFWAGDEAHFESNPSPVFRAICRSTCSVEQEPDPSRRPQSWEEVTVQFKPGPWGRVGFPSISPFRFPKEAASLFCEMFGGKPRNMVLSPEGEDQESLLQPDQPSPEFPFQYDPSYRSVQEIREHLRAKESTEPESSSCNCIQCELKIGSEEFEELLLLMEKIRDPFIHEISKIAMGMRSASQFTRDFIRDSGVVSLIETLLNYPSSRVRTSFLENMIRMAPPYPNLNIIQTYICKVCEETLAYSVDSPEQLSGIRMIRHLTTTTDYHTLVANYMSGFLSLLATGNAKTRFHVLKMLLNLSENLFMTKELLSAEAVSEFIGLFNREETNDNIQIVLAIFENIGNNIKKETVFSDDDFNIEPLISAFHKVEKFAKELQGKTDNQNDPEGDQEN

Row | Variant | effect of a mutation on the interaction
1 | F325A;K326A | decreasing interaction
